Reference: patent EP4692114A1, “CALCITONIN ANALOGUE, AND DERIVATIVE THEREOF AND USE THEREOF” (Hangzhou Sciwind Biosciences Co., Ltd., priority 2023, dated 2024)
*1 amine or outer side, *2 acyl side, *3 side chain or, on linkers, in order; H or OH if unused. The star is where a group is joined. C22 diacid = O=C(O)CCCCCCCCCCCCCCCCCCCCC(=O)*; C20 diacid = O=C(O)CCCCCCCCCCCCCCCCCCC(=O)*; γGlu = O=C(O)[C@H](CCC(=O)[*:2])N[*:1]; AEEA = NCCOCCOCC(=O)O

T1: human amylin receptor (AMY3) on CHO-K1/Gal5/AMY3 cells (human, UniProt P30988 25-474; O60896 24-148)
T1 sequence (looked up) 1: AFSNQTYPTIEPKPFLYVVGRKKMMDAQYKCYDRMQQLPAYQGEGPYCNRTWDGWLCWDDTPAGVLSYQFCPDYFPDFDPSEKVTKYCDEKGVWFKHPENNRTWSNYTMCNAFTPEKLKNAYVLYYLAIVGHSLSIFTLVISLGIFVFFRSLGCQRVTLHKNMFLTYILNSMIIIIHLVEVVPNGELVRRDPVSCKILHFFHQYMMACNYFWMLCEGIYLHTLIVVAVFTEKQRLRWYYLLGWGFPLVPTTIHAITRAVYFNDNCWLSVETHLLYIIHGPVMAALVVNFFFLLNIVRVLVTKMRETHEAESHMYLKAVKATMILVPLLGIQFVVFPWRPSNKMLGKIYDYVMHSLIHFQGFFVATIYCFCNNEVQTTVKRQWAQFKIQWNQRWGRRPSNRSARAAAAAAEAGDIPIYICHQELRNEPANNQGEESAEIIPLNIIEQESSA
T1 sequence (looked up) 2: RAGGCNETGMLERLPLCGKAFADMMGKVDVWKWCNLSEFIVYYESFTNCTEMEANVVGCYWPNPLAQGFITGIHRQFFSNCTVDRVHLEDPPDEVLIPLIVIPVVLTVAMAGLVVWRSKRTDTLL

B1: calcitonin derivative M18 (peptide)
peptide: {C20 diacid-γGlu}-ASQLSTAVLGRLSQELHRLQDLPRTDVGSGSP-NH2
SMILES: CC(C)C[C@H](NC(=O)[C@H](CCCNC(=N)N)NC(=O)CNC(=O)[C@H](CC(C)C)NC(=O)[C@@H](NC(=O)[C@H](C)NC(=O)[C@@H](NC(=O)[C@H](CO)NC(=O)[C@H](CC(C)C)NC(=O)[C@H](CCC(N)=O)NC(=O)[C@H](CO)NC(=O)[C@H](C)NC(=O)CC[C@H](NC(=O)CCCCCCCCCCCCCCCCCCC(=O)O)C(=O)O)[C@@H](C)O)C(C)C)C(=O)N[C@@H](CO)C(=O)N[C@@H](CCC(N)=O)C(=O)N[C@@H](CCC(=O)O)C(=O)N[C@@H](CC(C)C)C(=O)N[C@@H](Cc1c[nH]cn1)C(=O)N[C@@H](CCCNC(=N)N)C(=O)N[C@@H](CC(C)C)C(=O)N[C@@H](CCC(N)=O)C(=O)N[C@@H](CC(=O)O)C(=O)N[C@@H](CC(C)C)C(=O)N1CCC[C@H]1C(=O)N[C@@H](CCCNC(=N)N)C(=O)N[C@H](C(=O)N[C@@H](CC(=O)O)C(=O)N[C@H](C(=O)NCC(=O)N[C@@H](CO)C(=O)NCC(=O)N[C@@H](CO)C(=O)N1CCC[C@H]1C(N)=O)C(C)C)[C@@H](C)O
B2: calcitonin derivative M35 (peptide)
peptide: {C20 diacid-γGlu}-RSQLSTDVLGRLSQELHRLQDYPRTDVGSGSP-NH2
SMILES: CC(C)C[C@H](NC(=O)[C@H](CCCNC(=N)N)NC(=O)CNC(=O)[C@H](CC(C)C)NC(=O)[C@@H](NC(=O)[C@H](CC(=O)O)NC(=O)[C@@H](NC(=O)[C@H](CO)NC(=O)[C@H](CC(C)C)NC(=O)[C@H](CCC(N)=O)NC(=O)[C@H](CO)NC(=O)[C@H](CCCNC(=N)N)NC(=O)CC[C@H](NC(=O)CCCCCCCCCCCCCCCCCCC(=O)O)C(=O)O)[C@@H](C)O)C(C)C)C(=O)N[C@@H](CO)C(=O)N[C@@H](CCC(N)=O)C(=O)N[C@@H](CCC(=O)O)C(=O)N[C@@H](CC(C)C)C(=O)N[C@@H](Cc1c[nH]cn1)C(=O)N[C@@H](CCCNC(=N)N)C(=O)N[C@@H](CC(C)C)C(=O)N[C@@H](CCC(N)=O)C(=O)N[C@@H](CC(=O)O)C(=O)N[C@@H](Cc1ccc(O)cc1)C(=O)N1CCC[C@H]1C(=O)N[C@@H](CCCNC(=N)N)C(=O)N[C@H](C(=O)N[C@@H](CC(=O)O)C(=O)N[C@H](C(=O)NCC(=O)N[C@@H](CO)C(=O)NCC(=O)N[C@@H](CO)C(=O)N1CCC[C@H]1C(N)=O)C(C)C)[C@@H](C)O
B3: calcitonin derivative M67 (peptide)
peptide: {C22 diacid-γGlu-AEEA-AEEA-AEEA-AEEA}-ASQLSTAVLGRLSEELHRLQDYPRTDVGSGSP-NH2
SMILES: CC(C)C[C@H](NC(=O)[C@H](CCCNC(=N)N)NC(=O)CNC(=O)[C@H](CC(C)C)NC(=O)[C@@H](NC(=O)[C@H](C)NC(=O)[C@@H](NC(=O)[C@H](CO)NC(=O)[C@H](CC(C)C)NC(=O)[C@H](CCC(N)=O)NC(=O)[C@H](CO)NC(=O)[C@H](C)NC(=O)COCCOCCNC(=O)COCCOCCNC(=O)COCCOCCNC(=O)COCCOCCNC(=O)CC[C@H](NC(=O)CCCCCCCCCCCCCCCCCCCCC(=O)O)C(=O)O)[C@@H](C)O)C(C)C)C(=O)N[C@@H](CO)C(=O)N[C@@H](CCC(=O)O)C(=O)N[C@@H](CCC(=O)O)C(=O)N[C@@H](CC(C)C)C(=O)N[C@@H](Cc1c[nH]cn1)C(=O)N[C@@H](CCCNC(=N)N)C(=O)N[C@@H](CC(C)C)C(=O)N[C@@H](CCC(N)=O)C(=O)N[C@@H](CC(=O)O)C(=O)N[C@@H](Cc1ccc(O)cc1)C(=O)N1CCC[C@H]1C(=O)N[C@@H](CCCNC(=N)N)C(=O)N[C@H](C(=O)N[C@@H](CC(=O)O)C(=O)N[C@H](C(=O)NCC(=O)N[C@@H](CO)C(=O)NCC(=O)N[C@@H](CO)C(=O)N1CCC[C@H]1C(N)=O)C(C)C)[C@@H](C)O
B4: calcitonin derivative M52 (peptide)
peptide: {C20 diacid}-EASQLSTAVLGRLSEELHRLQDYPRTDVGSGSP-NH2
SMILES: CC(C)C[C@H](NC(=O)[C@H](CCCNC(=N)N)NC(=O)CNC(=O)[C@H](CC(C)C)NC(=O)[C@@H](NC(=O)[C@H](C)NC(=O)[C@@H](NC(=O)[C@H](CO)NC(=O)[C@H](CC(C)C)NC(=O)[C@H](CCC(N)=O)NC(=O)[C@H](CO)NC(=O)[C@H](C)NC(=O)[C@H](CCC(=O)O)NC(=O)CCCCCCCCCCCCCCCCCCC(=O)O)[C@@H](C)O)C(C)C)C(=O)N[C@@H](CO)C(=O)N[C@@H](CCC(=O)O)C(=O)N[C@@H](CCC(=O)O)C(=O)N[C@@H](CC(C)C)C(=O)N[C@@H](Cc1c[nH]cn1)C(=O)N[C@@H](CCCNC(=N)N)C(=O)N[C@@H](CC(C)C)C(=O)N[C@@H](CCC(N)=O)C(=O)N[C@@H](CC(=O)O)C(=O)N[C@@H](Cc1ccc(O)cc1)C(=O)N1CCC[C@H]1C(=O)N[C@@H](CCCNC(=N)N)C(=O)N[C@H](C(=O)N[C@@H](CC(=O)O)C(=O)N[C@H](C(=O)NCC(=O)N[C@@H](CO)C(=O)NCC(=O)N[C@@H](CO)C(=O)N1CCC[C@H]1C(N)=O)C(C)C)[C@@H](C)O
B5: calcitonin derivative M20 (peptide)
peptide: {C20 diacid-γGlu}-ASQLSTAVLGRLSQELHRLQDYPRTDVGAESP-NH2
SMILES: CC(C)C[C@H](NC(=O)[C@H](CCCNC(=N)N)NC(=O)CNC(=O)[C@H](CC(C)C)NC(=O)[C@@H](NC(=O)[C@H](C)NC(=O)[C@@H](NC(=O)[C@H](CO)NC(=O)[C@H](CC(C)C)NC(=O)[C@H](CCC(N)=O)NC(=O)[C@H](CO)NC(=O)[C@H](C)NC(=O)CC[C@H](NC(=O)CCCCCCCCCCCCCCCCCCC(=O)O)C(=O)O)[C@@H](C)O)C(C)C)C(=O)N[C@@H](CO)C(=O)N[C@@H](CCC(N)=O)C(=O)N[C@@H](CCC(=O)O)C(=O)N[C@@H](CC(C)C)C(=O)N[C@@H](Cc1c[nH]cn1)C(=O)N[C@@H](CCCNC(=N)N)C(=O)N[C@@H](CC(C)C)C(=O)N[C@@H](CCC(N)=O)C(=O)N[C@@H](CC(=O)O)C(=O)N[C@@H](Cc1ccc(O)cc1)C(=O)N1CCC[C@H]1C(=O)N[C@@H](CCCNC(=N)N)C(=O)N[C@H](C(=O)N[C@@H](CC(=O)O)C(=O)N[C@H](C(=O)NCC(=O)N[C@@H](C)C(=O)N[C@@H](CCC(=O)O)C(=O)N[C@@H](CO)C(=O)N1CCC[C@H]1C(N)=O)C(C)C)[C@@H](C)O
B6: calcitonin derivative M37 (peptide)
peptide: {C20 diacid-γGlu}-KSQLSTDVLGRLSQELHRLQDYPRTDVGSGSP-NH2
SMILES: CC(C)C[C@H](NC(=O)[C@H](CCCNC(=N)N)NC(=O)CNC(=O)[C@H](CC(C)C)NC(=O)[C@@H](NC(=O)[C@H](CC(=O)O)NC(=O)[C@@H](NC(=O)[C@H](CO)NC(=O)[C@H](CC(C)C)NC(=O)[C@H](CCC(N)=O)NC(=O)[C@H](CO)NC(=O)[C@H](CCCCN)NC(=O)CC[C@H](NC(=O)CCCCCCCCCCCCCCCCCCC(=O)O)C(=O)O)[C@@H](C)O)C(C)C)C(=O)N[C@@H](CO)C(=O)N[C@@H](CCC(N)=O)C(=O)N[C@@H](CCC(=O)O)C(=O)N[C@@H](CC(C)C)C(=O)N[C@@H](Cc1c[nH]cn1)C(=O)N[C@@H](CCCNC(=N)N)C(=O)N[C@@H](CC(C)C)C(=O)N[C@@H](CCC(N)=O)C(=O)N[C@@H](CC(=O)O)C(=O)N[C@@H](Cc1ccc(O)cc1)C(=O)N1CCC[C@H]1C(=O)N[C@@H](CCCNC(=N)N)C(=O)N[C@H](C(=O)N[C@@H](CC(=O)O)C(=O)N[C@H](C(=O)NCC(=O)N[C@@H](CO)C(=O)NCC(=O)N[C@@H](CO)C(=O)N1CCC[C@H]1C(N)=O)C(C)C)[C@@H](C)O

What follows are binders tested against T1, human amylin receptor (AMY3) on … (assay: cell-based or functional assay).

EC50/nM, CRE-luciferase in amylin receptor/CRE-luc CHO cells	Binder
0.028 nM	B1
0.037 nM	B2
0.017 nM	B3
0.017 nM	B4
0.017 nM	B5
0.052 nM	B6
